T1: VirB4/TrwK with a C-terminal StrepII tag (Escherichia coli plasmid R388, UniProt O50330 1-823)
T1 sequence (looked up): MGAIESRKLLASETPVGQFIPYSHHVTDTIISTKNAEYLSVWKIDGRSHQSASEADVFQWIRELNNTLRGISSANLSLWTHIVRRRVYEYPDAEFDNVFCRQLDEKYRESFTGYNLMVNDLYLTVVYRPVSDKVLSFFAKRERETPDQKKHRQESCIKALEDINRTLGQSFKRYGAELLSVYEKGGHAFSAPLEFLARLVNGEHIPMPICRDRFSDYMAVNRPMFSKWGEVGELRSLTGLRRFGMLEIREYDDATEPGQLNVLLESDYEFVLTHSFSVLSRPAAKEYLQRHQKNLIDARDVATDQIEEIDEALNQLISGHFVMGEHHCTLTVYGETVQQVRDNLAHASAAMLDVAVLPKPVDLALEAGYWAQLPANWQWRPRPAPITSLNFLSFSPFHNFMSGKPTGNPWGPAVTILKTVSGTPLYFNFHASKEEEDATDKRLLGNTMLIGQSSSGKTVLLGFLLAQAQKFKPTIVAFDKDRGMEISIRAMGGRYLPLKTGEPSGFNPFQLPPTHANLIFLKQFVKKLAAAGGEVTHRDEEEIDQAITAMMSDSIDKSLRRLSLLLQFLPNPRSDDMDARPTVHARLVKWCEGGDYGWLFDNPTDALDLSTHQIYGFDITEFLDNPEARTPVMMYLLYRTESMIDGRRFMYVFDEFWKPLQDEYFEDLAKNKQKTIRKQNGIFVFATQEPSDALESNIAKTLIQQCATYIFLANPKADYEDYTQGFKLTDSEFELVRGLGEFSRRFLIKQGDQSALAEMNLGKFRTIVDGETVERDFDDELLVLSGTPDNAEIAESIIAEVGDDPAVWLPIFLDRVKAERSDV

B1: VirB5/TrwJ (natural protein, Escherichia coli plasmid R388, UniProt O50331 23-226, looked up)
chain: QGIPVFDGTRALDFVQQFARMKEQLDTAKDQLAEAQRMYEAVTGGRGLGDLMRNAQLREYLPDDLRTVYDSANGGGYSGISGSINDILRDERLNGSVADMRRSIEERSRTARTTDKAVGCGPTKGHSNASRRLKDEISRTQDQKAIEELQARIAGEQAAIQNETTKLQMIAQLRQAEQALISEQRRERNMPILSSGNQGMPTIQ
B2: VirB3/TrwM (natural protein, Escherichia coli plasmid R388, UniProt O50329 1-104, looked up)
chain: MKPPQQQHEAFPLFKGATRLPTILGEPMIPLMAMVMGVAVIALTVSIWWWALVPPLWFIMAQITKNDDKAFRIWWLWIDTKFRNRNKGFWGASSYSPANYRKRR
B3: VirB10/TrwE with a C-terminal StrepII tag (natural protein, Escherichia coli plasmid R388, UniProt O50337 1-395, looked up)
chain: MFGRKKGDVIDAGAELERAEQERIEGEYGASELASERRPHTPGARTLLMVLLCVIAVVLVTLSYKAYKVRGVVEDDDAQPQQVVRQVIPGYTPRPIRPEPENVPEPPQPTTSVPAIQPAPVTQPVRPQPTGPREKTPYELARERMLRSGLTAGSGGGEDLPRPQGGDVPAGGLMGGGGGGGELAEKLQPMRLSGSSAGRLGNRDMLITQGTQLDCVLETRLVTTQPGMTTCHLTRDVYSTSGRVVLLDRGSKVVGFYQGGLRQGQARIFVQWSRIETPSGVVINLDSPGTGPLGEAGLGGWIDRHFWERFGGAIMISLIGDLGDWASRQGSRQGNNSIQFSNTANGVESAAAEALRNSINIPPTLYKNQGERVNILVARDLDFSDVYSLESIPTK
B4: VirB4/TrwK (untagged, in the T4SS3-10 complex) (enzyme, Escherichia coli plasmid R388, UniProt O50330 1-823, looked up)
chain: T1 sequence (looked up)
B5: VirB8/TrwG (natural protein, Escherichia coli plasmid R388, UniProt O50335 1-231, looked up)
chain: MSKKQPKPVKAEQLKSYYEESRGLERDLIGEFVKSRKTAWRVATASGLFGLLGMVCGIVGFSQPAPAPLVLRVDNATGAVDVVTTLREHESSYGEVVDTYWLNQYVLNREAYDYNTIQMNYDTTALLSAPAVQQDYYKLFDGSNARDRVLGNKARITVRVRSIQPNGRGQATVRFTTQQHNSNGTVERPQHQIATIGYTYIGAPMRSSDRLLNPLGFQVTSYRADPEILNN

Key:
[1] = target: VirB10/TrwE with a C-terminal StrepII tag (Escherichia coli plasmid R388) (UniProt O50337); assay: tandem affinity purification with 125I labelling of tyrosines and SDS-PAGE
[2] = target: VirB4/TrwK (untagged, in the T4SS3-10 complex) (Escherichia coli plasmid R388) (UniProt O50330); assay: negative stain EM reconstruction
[3] = target: B3; assay: tandem affinity purification with 125I labelling of tyrosines and SDS-PAGE
[4] = target: T1, VirB4/TrwK with a C-terminal StrepII tag; assay: SEC
[5] = target: the molecule itself; assay: co-purification

Question: “VirB6/TrwI with an N-terminal His6 tag (natural protein)” was tested. Which copies in the complex, calibrated on 14 copies of VirB10/TrwE [1] did it give?
Answer: 23.8 copies

Question: With “VirB4/TrwK (untagged, in the T4SS3-10 complex) (from UniProt O50330 1-823) (enzyme)” as the molecule, how does the stoichiometry N [2] read?
Answer: 6

Question: B1 was tested. Which “copies in the complex, calibrated on 14 copies of VirB10/TrwE” value (“copies in the complex … of VirB10/TrwE” for short) [3] did it give?
Answer: 11.9 copies

Question: How did the “stoichiometry N” value [4] turn out when B2 was run?
Answer: 1

Question: For B3, which “stoichiometry N” value [5] is on record?
Answer: 14

Question: How did the “copies in the complex … of VirB10/TrwE” value [3] turn out when B4 was run?
Answer: 11.5 copies

Question: B5 was tested. Which “copies in the complex … of VirB10/TrwE” value [3] did it give?
Answer: 12.6 copies

— article PMC3998870 (Nature, 2014)
